Test results published in US20110091449A1 (University of Pennsylvania, published 2011).
One block for each binder: values may come before it.

Experiments:
[1] = biological target: T1, recombinant human desmoglein 3 (Dsg3) on ELISA plates (MBL) (human, UniProt P32926 50-615, limits assumed); test: Dsg3 ELISA (MBL), soluble scFv, anti-HA detection
T1 construct: Commercial Dsg3 ELISA plate (MBL)
T1 sequence (looked up): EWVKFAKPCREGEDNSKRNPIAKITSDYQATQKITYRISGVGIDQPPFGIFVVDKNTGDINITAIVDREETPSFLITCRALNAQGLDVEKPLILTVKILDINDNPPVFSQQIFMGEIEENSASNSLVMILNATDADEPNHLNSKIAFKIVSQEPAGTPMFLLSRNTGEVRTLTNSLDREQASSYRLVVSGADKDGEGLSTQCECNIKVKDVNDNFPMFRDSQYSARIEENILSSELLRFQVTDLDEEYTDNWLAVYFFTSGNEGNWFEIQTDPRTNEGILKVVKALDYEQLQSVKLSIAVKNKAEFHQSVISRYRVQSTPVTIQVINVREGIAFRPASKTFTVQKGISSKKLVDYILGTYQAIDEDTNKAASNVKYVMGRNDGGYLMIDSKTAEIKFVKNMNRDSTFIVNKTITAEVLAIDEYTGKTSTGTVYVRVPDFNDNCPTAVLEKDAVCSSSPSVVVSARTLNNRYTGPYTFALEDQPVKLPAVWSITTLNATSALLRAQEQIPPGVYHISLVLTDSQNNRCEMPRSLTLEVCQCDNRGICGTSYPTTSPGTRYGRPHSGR

[2] = biological target: T2, baculovirus-produced recombinant human Dsg4-EHis (human, UniProt Q86SJ6 50-631); test: immunoprecipitation of Dsg4-EHis with scFv, anti-E tag immunoblot
T2 construct: not shown: E-tag and histidine tag
T2 sequence (looked up): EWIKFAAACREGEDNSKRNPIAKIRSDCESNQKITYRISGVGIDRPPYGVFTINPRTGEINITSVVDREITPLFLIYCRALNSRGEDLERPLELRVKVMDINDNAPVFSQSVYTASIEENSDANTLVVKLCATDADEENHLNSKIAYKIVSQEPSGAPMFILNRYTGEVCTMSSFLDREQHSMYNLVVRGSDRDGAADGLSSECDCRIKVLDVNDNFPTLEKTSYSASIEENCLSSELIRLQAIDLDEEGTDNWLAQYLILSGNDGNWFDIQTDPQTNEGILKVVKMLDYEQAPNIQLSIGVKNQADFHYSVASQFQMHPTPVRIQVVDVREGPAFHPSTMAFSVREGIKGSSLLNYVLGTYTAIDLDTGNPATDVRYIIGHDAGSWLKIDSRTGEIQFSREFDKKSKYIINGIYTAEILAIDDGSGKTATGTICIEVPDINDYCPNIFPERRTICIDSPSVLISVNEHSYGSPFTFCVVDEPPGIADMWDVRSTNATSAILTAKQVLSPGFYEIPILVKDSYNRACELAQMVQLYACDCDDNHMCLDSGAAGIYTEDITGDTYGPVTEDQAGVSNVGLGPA
Description: To determine whether anti-Dsg1 scFvs also bind Dsg4, baculovirus-produced recombinant human Dsg4-EHis and human Dsg1-EHis (“EHis” tag defined above) was used (Nagasaka et al., 2004 J. Clin. Invest 114:1484-1492.). Baculovirus-infected insect cell culture supernatants containing recombinant molecules were incubated with scFvs for 30 minutes and then immunoprecipitated with anti-HA agarose (Sigma-Aldrich) at 4° C. for 2 hours with gentle rotation. After washing with TBS-Ca, the immunoprecipitates were resuspended in Laemmli sample buffer, separated by SDS-PAGE, and transferred to nitrocellulose membranes (Bio-Rad Labratories). Membranes were probed with HRP-conjugated anti-E-tag antibody (1:2000 dilution, GE Healthcare Bio-Sciences).
Some pemphigus sera bind Dsg4, and this binding was due to antibodies against Dsg1 that cross react with Dsg4. To determine whether any of the anti-Dsg1 monoclonal antibodies crossreact with Dsg4, scFvs were used to immunoprecipitate recombinant Dsg4 containing a carboxy-terminal E-epitope tag, then identified its presence on an immunoblot stained with anti-E tag antibodies.

binding result [1]: no binding | binding result [2]: no binding
B1: 3-30/3h (scFv)
scFv: ELVLTQPPSVPVAPGQTANISCGGNNIGRQTVHWYQQKPGQAPVLVVFDDSDRPAGIPERFSGSNSGNTATLTISRVEAGDEADYYCQVWDSSSDHVVFGGGTQLTVLGGGSSRSSSSGGGGSGGGGQVQLVQSGGGVVQSGRSLRLSCAASGFTFSDYAMHWVRQAPGKGLEWVAVISHGGTKKYTGDSVKGRFIISRDNSKNTVFLQMNSLRVEDTAVYYCARDRVEGYVWGGTFDHWGQGTPVTVSS
notes: VH3-30, VDJ12, VL gene 3h; pathogenic; also called PF1-8-15; VH3-30 clone

binding result [1]: no binding | binding result [2]: no binding
B2: 1-18/L12 (scFv)
scFv: ELQMTQSPSTLSASVGDRVTITCRASQGISNWLAWYQQKPGKAPKLLIHKASSLESGVPSRFSGSGSGTEFTLTISSLQPDDFATYYCQQYYTYPLTFGGGTKVEIKGGSSRSSSSGGGGSGGGGQVQLVQSGAEVKKPGASVKVSCKASGYTFTNYGITWVRQAPGQGLEWMGWISVYNGDTKYAQKLQGRVTMTTDTPTNTVYMELRSLRSDDTAVYYCARGYGSGNWDYWGQGTLVTVSS
notes: VH1-18, VDJ1, VL gene L12; also called PF1-2-6
